T1: G-CSF receptor linked to Fc domain of human IgG (human, UniProt Q99062 25-627, limits assumed)
T1 sequence (looked up): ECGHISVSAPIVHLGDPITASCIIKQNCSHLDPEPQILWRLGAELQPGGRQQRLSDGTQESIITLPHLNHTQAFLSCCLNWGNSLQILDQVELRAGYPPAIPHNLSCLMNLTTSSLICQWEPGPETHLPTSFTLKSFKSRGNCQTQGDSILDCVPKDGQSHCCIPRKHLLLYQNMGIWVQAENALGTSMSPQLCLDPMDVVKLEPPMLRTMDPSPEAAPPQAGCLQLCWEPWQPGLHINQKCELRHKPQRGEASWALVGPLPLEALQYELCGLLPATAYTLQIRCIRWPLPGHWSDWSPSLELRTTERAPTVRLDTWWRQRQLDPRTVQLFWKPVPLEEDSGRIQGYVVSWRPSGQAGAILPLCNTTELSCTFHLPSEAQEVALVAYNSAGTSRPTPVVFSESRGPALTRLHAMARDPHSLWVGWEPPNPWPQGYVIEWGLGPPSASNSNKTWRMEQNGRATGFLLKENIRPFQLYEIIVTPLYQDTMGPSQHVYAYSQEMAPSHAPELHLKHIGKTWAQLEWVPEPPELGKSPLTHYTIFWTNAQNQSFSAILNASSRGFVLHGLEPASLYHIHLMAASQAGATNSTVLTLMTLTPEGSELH


The binders below were run against T1, G-CSF receptor linked to Fc domain of … (assay: ELISA on coated G-CSF receptor-Fc, done like the TPO ELISA).

| Binder | EC50 (read off the curve) [µg/mL] |
| --- | --- |
| wild type G-CSF (ligand, cDNA from leukocytes of healthy people; expressed in CHO-K1 cells; also called G-CSF wild type) TPLGPASSLPQSFLLKCLEQVRKIQGDGAALQEKLCATYKLCHPEELVLLGHSLGIPWAPLSSCPSQALQLAGCLSQLHSGLFLYQGLLQALEGISPELGPTLDTLQLDVADFATTIWQQMEELGMAPALQPTQGAMPAFASAFQRRAGGVLVASHLQSFLEVSYRVLRHLAQP | ~0.04 |
| G-CSF F13V (ligand, used as CHO-K1 culture supernatant) cytokine chain: TPLGPASSLPQSVLLKCLEQVRKIQGDGAALQEKLCATYKLCHPEELVLLGHSLGIPWAPLSSCPSQALQLAGCLSQLHSGLFLYQGLLQALEGISPELGPTLDTLQLDVADFATTIWQQMEELGMAPALQPTQGAMPAFASAFQRRAGGVLVASHLQSFLEVSYRVLRHLAQP | ~0.03 |
| G-CSF F113V (ligand, used as CHO-K1 culture supernatant) cytokine chain: TPLGPASSLPQSFLLKCLEQVRKIQGDGAALQEKLCATYKLCHPEELVLLGHSLGIPWAPLSSCPSQALQLAGCLSQLHSGLFLYQGLLQALEGISPELGPTLDTLQLDVADVATTIWQQMEELGMAPALQPTQGAMPAFASAFQRRAGGVLVASHLQSFLEVSYRVLRHLAQP | ~0.06 |
| G-CSF-[F160V] (ligand, G-CSF mutein expressed in CHO-K1 cells) TPLGPASSLPQSFLLKCLEQVRKIQGDGAALQEKLCATYKLCHPEELVLLGHSLGIPWAPLSSCPSQALQLAGCLSQLHSGLFLYQGLLQALEGISPELGPTLDTLQLDVADFATTIWQQMEELGMAPALQPTQGAMPAFASAFQRRAGGVLVASHLQSVLEVSYRVLRHLAQP | ~0.04 |
| G-CSF-[F140V] (ligand, G-CSF mutein expressed in CHO-K1 cells; also called G-CSF-[F140VD]) TPLGPASSLPQSFLLKCLEQVRKIQGDGAALQEKLCATYKLCHPEELVLLGHSLGIPWAPLSSCPSQALQLAGCLSQLHSGLFLYQGLLQALEGISPELGPTLDTLQLDVADFATTIWQQMEELGMAPALQPTQGAMPAVASAFQRRAGGVLVASHLQSFLEVSYRVLRHLAQP | ~0.06 |

Source: patent US20130089513A1 (MEDEXGEN, published 2013)
